Data on four molecules can be found in patent US20250084142A1 (INTARCIA THERAPEUTICS, published 2025).

Starred links: 1 amine or outer side, 2 acyl side, 3 side chain; linkers in the order of their positions; H or OH if unused. Positions of bridges follow the written chain, without caps; N, C: chain ends. Non-standard residues stand in square brackets, D forms with d. Groups on a side chain read outwards from the residue. No end group written: not given here. *: point of attachment. dpeg = —[CO(CH2)O(CH2)2O(CH2)NH]— spacer, O=C(COCCOCN[*:1])[*:2]; C20 diacid = O=C(O)CCCCCCCCCCCCCCCCCCC(=O)*; C19 diacid = O=C(O)CCCCCCCCCCCCCCCCCC(=O)*; γGlu = O=C(O)[C@H](CCC(=O)[*:2])N[*:1]

Sequences and labels used below:
T1: NPY2R
T1 sequence (P49146 1-381, species assumed, looked up): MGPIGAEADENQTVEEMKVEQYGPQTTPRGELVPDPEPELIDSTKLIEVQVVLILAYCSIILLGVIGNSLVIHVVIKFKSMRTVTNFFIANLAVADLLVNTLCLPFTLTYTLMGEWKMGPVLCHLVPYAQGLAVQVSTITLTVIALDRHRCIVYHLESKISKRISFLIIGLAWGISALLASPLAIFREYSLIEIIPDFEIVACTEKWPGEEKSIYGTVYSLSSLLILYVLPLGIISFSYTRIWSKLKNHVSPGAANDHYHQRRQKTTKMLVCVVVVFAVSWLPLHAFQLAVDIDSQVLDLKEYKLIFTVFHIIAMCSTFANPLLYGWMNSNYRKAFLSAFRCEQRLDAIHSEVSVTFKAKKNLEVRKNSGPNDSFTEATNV

T2: NPY5R
T2 sequence (Q15761 1-445, species assumed, looked up): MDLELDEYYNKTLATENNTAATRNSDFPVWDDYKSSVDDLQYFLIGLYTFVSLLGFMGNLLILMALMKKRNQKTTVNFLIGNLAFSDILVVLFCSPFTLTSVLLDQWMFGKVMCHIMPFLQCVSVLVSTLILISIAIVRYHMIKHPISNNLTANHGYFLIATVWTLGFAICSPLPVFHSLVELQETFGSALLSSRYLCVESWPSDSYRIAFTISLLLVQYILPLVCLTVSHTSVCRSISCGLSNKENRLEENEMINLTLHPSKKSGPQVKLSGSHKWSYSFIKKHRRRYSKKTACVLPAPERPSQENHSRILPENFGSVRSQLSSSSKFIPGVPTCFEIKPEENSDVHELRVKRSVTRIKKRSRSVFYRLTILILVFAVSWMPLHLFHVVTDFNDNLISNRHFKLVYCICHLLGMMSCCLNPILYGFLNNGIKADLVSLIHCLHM

B1: Compound A39 (peptide)
peptide: PKPEKPGK([γGlu-γGlu-C19 diacid])DASPKEWERYYKDLRHYLNWLTRQRF-NH2
modifications: lactam 16-20; N-terminus assumed
SMILES: CC(C)C[C@H](NC(=O)[C@H](CC(=O)O)NC(=O)[C@@H]1CCCCNC(=O)CC[C@H](NC(=O)[C@H](Cc2c[nH]c3ccccc23)NC(=O)[C@H](CCC(=O)O)NC(=O)[C@H](CCCCN)NC(=O)[C@@H]2CCCN2C(=O)[C@H](CO)NC(=O)[C@H](C)NC(=O)[C@H](CC(=O)O)NC(=O)[C@H](CCCCNC(=O)CC[C@H](NC(=O)CC[C@H](NC(=O)CCCCCCCCCCCCCCCCCC(=O)O)C(=O)O)C(=O)O)NC(=O)CNC(=O)[C@@H]2CCCN2C(=O)[C@H](CCCCN)NC(=O)[C@H](CCC(=O)O)NC(=O)[C@@H]2CCCN2C(=O)[C@H](CCCCN)NC(=O)[C@@H]2CCCN2)C(=O)N[C@@H](CCCNC(=N)N)C(=O)N[C@@H](Cc2ccc(O)cc2)C(=O)N[C@@H](Cc2ccc(O)cc2)C(=O)N1)C(=O)N[C@@H](CCCNC(=N)N)C(=O)N[C@@H](Cc1c[nH]cn1)C(=O)N[C@@H](Cc1ccc(O)cc1)C(=O)N[C@@H](CC(C)C)C(=O)N[C@@H](CC(N)=O)C(=O)N[C@@H](Cc1c[nH]c2ccccc12)C(=O)N[C@@H](CC(C)C)C(=O)N[C@H](C(=O)N[C@@H](CCCNC(=N)N)C(=O)N[C@@H](CCC(N)=O)C(=O)N[C@@H](CCCNC(=N)N)C(=O)N[C@@H](Cc1ccccc1)C(N)=O)[C@@H](C)O
B2: Compound A14 (peptide)
peptide: PKPEAPGKDASPEEWNRYY[dK]([γGlu-γGlu-C20 diacid])DLRHYLNWLTRQRF-NH2
modifications: N-terminus assumed
SMILES: CC(C)C[C@H](NC(=O)[C@H](Cc1ccc(O)cc1)NC(=O)[C@H](Cc1c[nH]cn1)NC(=O)[C@H](CCCNC(=N)N)NC(=O)[C@H](CC(C)C)NC(=O)[C@H](CC(=O)O)NC(=O)[C@@H](CCCCNC(=O)CC[C@H](NC(=O)CC[C@H](NC(=O)CCCCCCCCCCCCCCCCCCC(=O)O)C(=O)O)C(=O)O)NC(=O)[C@H](Cc1ccc(O)cc1)NC(=O)[C@H](Cc1ccc(O)cc1)NC(=O)[C@H](CCCNC(=N)N)NC(=O)[C@H](CC(N)=O)NC(=O)[C@H](Cc1c[nH]c2ccccc12)NC(=O)[C@H](CCC(=O)O)NC(=O)[C@H](CCC(=O)O)NC(=O)[C@@H]1CCCN1C(=O)[C@H](CO)NC(=O)[C@H](C)NC(=O)[C@H](CC(=O)O)NC(=O)[C@H](CCCCN)NC(=O)CNC(=O)[C@@H]1CCCN1C(=O)[C@H](C)NC(=O)[C@H](CCC(=O)O)NC(=O)[C@@H]1CCCN1C(=O)[C@H](CCCCN)NC(=O)[C@@H]1CCCN1)C(=O)N[C@@H](CC(N)=O)C(=O)N[C@@H](Cc1c[nH]c2ccccc12)C(=O)N[C@@H](CC(C)C)C(=O)N[C@H](C(=O)N[C@@H](CCCNC(=N)N)C(=O)N[C@@H](CCC(N)=O)C(=O)N[C@@H](CCCNC(=N)N)C(=O)N[C@@H](Cc1ccccc1)C(N)=O)[C@@H](C)O
B3: Compound A72 (peptide)
peptide: PKPEK([γGlu-γGlu-C20 diacid])PGEDASPKEWNRYYKDLRHYLNWLTRQRF-NH2
modifications: N-terminus assumed
SMILES: CC(C)C[C@H](NC(=O)[C@H](CC(=O)O)NC(=O)[C@H](CCCCN)NC(=O)[C@H](Cc1ccc(O)cc1)NC(=O)[C@H](Cc1ccc(O)cc1)NC(=O)[C@H](CCCNC(=N)N)NC(=O)[C@H](CC(N)=O)NC(=O)[C@H](Cc1c[nH]c2ccccc12)NC(=O)[C@H](CCC(=O)O)NC(=O)[C@H](CCCCN)NC(=O)[C@@H]1CCCN1C(=O)[C@H](CO)NC(=O)[C@H](C)NC(=O)[C@H](CC(=O)O)NC(=O)[C@H](CCC(=O)O)NC(=O)CNC(=O)[C@@H]1CCCN1C(=O)[C@H](CCCCNC(=O)CC[C@H](NC(=O)CC[C@H](NC(=O)CCCCCCCCCCCCCCCCCCC(=O)O)C(=O)O)C(=O)O)NC(=O)[C@H](CCC(=O)O)NC(=O)[C@@H]1CCCN1C(=O)[C@H](CCCCN)NC(=O)[C@@H]1CCCN1)C(=O)N[C@@H](CCCNC(=N)N)C(=O)N[C@@H](Cc1c[nH]cn1)C(=O)N[C@@H](Cc1ccc(O)cc1)C(=O)N[C@@H](CC(C)C)C(=O)N[C@@H](CC(N)=O)C(=O)N[C@@H](Cc1c[nH]c2ccccc12)C(=O)N[C@@H](CC(C)C)C(=O)N[C@H](C(=O)N[C@@H](CCCNC(=N)N)C(=O)N[C@@H](CCC(N)=O)C(=O)N[C@@H](CCCNC(=N)N)C(=O)N[C@@H](Cc1ccccc1)C(N)=O)[C@@H](C)O

For the first assay, the target named is NPY1R. The assay can be described thus: cell-based or functional assay.
Chain of NPY1R (P25929 whole entry): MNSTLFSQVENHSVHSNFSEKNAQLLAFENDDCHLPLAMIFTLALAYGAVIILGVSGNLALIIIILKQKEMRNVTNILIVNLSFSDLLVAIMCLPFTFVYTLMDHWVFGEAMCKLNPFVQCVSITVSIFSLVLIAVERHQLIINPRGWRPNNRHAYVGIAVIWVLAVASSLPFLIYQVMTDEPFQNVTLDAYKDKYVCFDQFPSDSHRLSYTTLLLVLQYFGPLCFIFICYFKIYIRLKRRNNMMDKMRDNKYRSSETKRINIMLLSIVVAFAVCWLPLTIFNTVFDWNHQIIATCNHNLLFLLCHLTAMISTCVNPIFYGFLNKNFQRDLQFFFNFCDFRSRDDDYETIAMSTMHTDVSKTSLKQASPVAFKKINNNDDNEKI
As to B1, the “NPY1R pEC50” value was 9.1 -Log(EC50, M).
As for PKPEAPGKDASPEEWNRYY[dK]([γGlu-dpeg-dpeg-γGlu-C20 diacid])DLRHYLNWLTRQRF-NH2 [Compound A65], the “NPY1R pEC50” value is 8 -Log(EC50, M).
Take B2: the “NPY1R pEC50” value was 8.5 -Log(EC50, M).
On the same count and under the same terms, as for B3, the figure is 9 -Log(EC50, M).

Another assay addresses T1, NPY2R. The assay can be described thus: cell-based or functional assay.
Turning to B1, the “NPY2R pEC50” value is 10.4 -Log(EC50, M).
Still for that read-out and setting: the figure for PKPEAPGKDASPEEWNRYY[dK]([γGlu-dpeg-dpeg-γGlu-C20 diacid])DLRHYLNWLTRQRF-NH2 [Compound A65] is 10.2 -Log(EC50, M); for B3 it is 10.8 -Log(EC50, M).

A further assay has as its target T2, NPY5R. The assay can be described thus: cell-based or functional assay.
Regarding B1, the “NPY5R pEC50” value is 8.9 -Log(EC50, M).
For the molecule PKPEAPGKDASPEEWNRYY[dK]([γGlu-dpeg-dpeg-γGlu-C20 diacid])DLRHYLNWLTRQRF-NH2 [Compound A65], the “NPY5R pEC50” value is 8.6 -Log(EC50, M).
Same read-out and setting: as for B2, the figure is 8.3 -Log(EC50, M); as for B3, 8.8 -Log(EC50, M).
